Measurements: patent US20210179716A1 (Pfizer, published 2021)

What was measured:
[1] = molecular target: T1, human CD47 protein (human, UniProt Q08722 19-139, limits assumed); assay: KD; method not stated
T1 construct: Soluble protein used for the KD measurements; construct not described; also called hCD47; CD47 (human)

[2] = molecular target: T2, cynomolgus CD47 protein (cynomolgus monkey, UniProt A0A2K5X523 19-139); assay: KD; method not stated
T2 construct: also called cyCD47; Cyno CD47

T1 sequence (Q08722 19-139 limits assumed): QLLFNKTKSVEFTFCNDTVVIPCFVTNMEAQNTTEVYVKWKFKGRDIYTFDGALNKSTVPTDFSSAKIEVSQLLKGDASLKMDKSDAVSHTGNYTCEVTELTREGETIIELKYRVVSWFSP

| Binder | Kd [1] [nM] | Kd [2] [nM] |
| --- | --- | --- |
| P1A11_D99E (antibody, V domains shown, Variant of P01A11) VH: QVQLVQSGAEVKKPGSSVKVSCKASGYTFTNYAISWVRQAPGQGLEWMGGISPLFGTANYAQKFQGRVTITADESTSTAYMELSSLRSEDTAVYYCAREGGRSSDVGWYVGAMDVWGQGTLVTVSS VL: not shown | 1200 | > 1500 |
| P01A11_Y27G_L54I_G100A (antibody, V domains shown, Variant of P01A11) VH: QVQLVQSGAEVKKPGSSVKVSCKASGGTFTNYAISWVRQAPGQGLEWMGGISPIFGTANYAQKFQGRVTITADESTSTAYMELSSLRSEDTAVYYCARDAGRSSDVGWYVGAMDVWGQGTLVTVSS VL: not shown | 132 | 180 |
| P01A11_Y27G_L54I_G100A_M113I (antibody, V domains shown, Variant of P01A11) VH: QVQLVQSGAEVKKPGSSVKVSCKASGGTFTNYAISWVRQAPGQGLEWMGGISPIFGTANYAQKFQGRVTITADESTSTAYMELSSLRSEDTAVYYCARDAGRSSDVGWYVGAIDVWGQGTLVTVSS VL: not shown | 263 | 371 |
| P01A11_T30S_N31S_L54I_G100A_M113L (antibody, V domains shown, Variant of P01A11) VH: QVQLVQSGAEVKKPGSSVKVSCKASGYTFSSYAISWVRQAPGQGLEWMGGISPIFGTANYAQKFQGRVTITADESTSTAYMELSSLRSEDTAVYYCARDAGRSSDVGWYVGALDVWGQGTLVTVSS VL: not shown | 106 | 120 |
| P1A11_G100Q (antibody, V domains shown, Variant of P01A11) VH: QVQLVQSGAEVKKPGSSVKVSCKASGYTFTNYAISWVRQAPGQGLEWMGGISPLFGTANYAQKFQGRVTITADESTSTAYMELSSLRSEDTAVYYCARDQGRSSDVGWYVGAMDVWGQGTLVTVSS VL: not shown | > 1500 | > 1500 |
| P01A11_W108A (antibody, V domains shown, Variant of P01A11) VH: QVQLVQSGAEVKKPGSSVKVSCKASGYTFTNYAISWVRQAPGQGLEWMGGISPLFGTANYAQKFQGRVTITADESTSTAYMELSSLRSEDTAVYYCARDGGRSSDVGAYVGAMDVWGQGTLVTVSS VL: not shown | 608 | 773 |
| P01A11_P53G_D105E (antibody, V domains shown, Variant of P01A11) VH: QVQLVQSGAEVKKPGSSVKVSCKASGYTFTNYAISWVRQAPGQGLEWMGGISGLFGTANYAQKFQGRVTITADESTSTAYMELSSLRSEDTAVYYCARDGGRSSEVGWYVGAMDVWGQGTLVTVSS VL: not shown | 241 | 351 |
| P1A11_S52I (antibody, V domains shown, Variant of P01A11) VH: QVQLVQSGAEVKKPGSSVKVSCKASGYTFTNYAISWVRQAPGQGLEWMGGIIPLFGTANYAQKFQGRVTITADESTSTAYMELSSLRSEDTAVYYCARDGGRSSDVGWYVGAMDVWGQGTLVTVSS VL: not shown | 1310 | > 1500 |
| P01A11_P53G_D114E (antibody, V domains shown, Variant of P01A11) VH: QVQLVQSGAEVKKPGSSVKVSCKASGYTFTNYAISWVRQAPGQGLEWMGGISGLFGTANYAQKFQGRVTITADESTSTAYMELSSLRSEDTAVYYCARDGGRSSDVGWYVGAMEVWGQGTLVTVSS VL: not shown | 300 | 520 |
| P1A11_W108F (antibody, V domains shown, Variant of P01A11) VH: QVQLVQSGAEVKKPGSSVKVSCKASGYTFTNYAISWVRQAPGQGLEWMGGISPLFGTANYAQKFQGRVTITADESTSTAYMELSSLRSEDTAVYYCARDGGRSSDVGFYVGAMDVWGQGTLVTVSS VL: not shown | 103 | 117 |
| P01A11_G100V (antibody, V domains shown, Variant of P01A11) VH: QVQLVQSGAEVKKPGSSVKVSCKASGYTFTNYAISWVRQAPGQGLEWMGGISPLFGTANYAQKFQGRVTITADESTSTAYMELSSLRSEDTAVYYCARDVGRSSDVGWYVGAMDVWGQGTLVTVSS VL: not shown | > 1500 | > 1500 |
| P01A11_T30S_N31S_L54I_G100A_W108Y_M113L (antibody, V domains shown, Variant of P01A11) VH: QVQLVQSGAEVKKPGSSVKVSCKASGYTFSSYAISWVRQAPGQGLEWMGGISPIFGTANYAQKFQGRVTITADESTSTAYMELSSLRSEDTAVYYCARDAGRSSDVGYYVGALDVWGQGTLVTVSS VL: not shown | > 1500 | > 1500 |
| P01A11_Y27G_L54I_G100A_M113L (antibody, V domains shown, Variant of P01A11) VH: QVQLVQSGAEVKKPGSSVKVSCKASGGTFTNYAISWVRQAPGQGLEWMGGISPIFGTANYAQKFQGRVTITADESTSTAYMELSSLRSEDTAVYYCARDAGRSSDVGWYVGALDVWGQGTLVTVSS VL: not shown | 154 | 198 |

These reach a lower Kd [1]. Values come first.

| Kd [1] [nM] | Kd [2] [nM] | Binder |
| --- | --- | --- |
| 31 | 46 | P01A11_L54A_D114E (antibody, V domains shown, Variant of P01A11) VH: QVQLVQSGAEVKKPGSSVKVSCKASGYTFTNYAISWVRQAPGQGLEWMGGISPAFGTANYAQKFQGRVTITADESTSTAYMELSSLRSEDTAVYYCARDGGRSSDVGWYVGAMEVWGQGTLVTVSS VL: not shown |
| 2.7 | 3.3 | P1A11_F55L (antibody, V domains shown, Variant of P01A11) VH: QVQLVQSGAEVKKPGSSVKVSCKASGYTFTNYAISWVRQAPGQGLEWMGGISPLLGTANYAQKFQGRVTITADESTSTAYMELSSLRSEDTAVYYCARDGGRSSDVGWYVGAMDVWGQGTLVTVSS VL: not shown |
| 20 | 23 | P1A11_Y27G (antibody, V domains shown, Variant of P01A11) VH: QVQLVQSGAEVKKPGSSVKVSCKASGGTFTNYAISWVRQAPGQGLEWMGGISPLFGTANYAQKFQGRVTITADESTSTAYMELSSLRSEDTAVYYCARDGGRSSDVGWYVGAMDVWGQGTLVTVSS VL: not shown |
| 7 | 9.3 | P1A11_N31S (antibody, V domains shown, Variant of P01A11) VH: QVQLVQSGAEVKKPGSSVKVSCKASGYTFTSYAISWVRQAPGQGLEWMGGISPLFGTANYAQKFQGRVTITADESTSTAYMELSSLRSEDTAVYYCARDGGRSSDVGWYVGAMDVWGQGTLVTVSS VL: not shown |
| 0.86 | 1.2 | P1A11_M113L (antibody, V domains shown, Variant of P01A11) VH: QVQLVQSGAEVKKPGSSVKVSCKASGYTFTNYAISWVRQAPGQGLEWMGGISPLFGTANYAQKFQGRVTITADESTSTAYMELSSLRSEDTAVYYCARDGGRSSDVGWYVGALDVWGQGTLVTVSS VL: not shown |
| 28 | 36 | P1A11_G100S (antibody, V domains shown, Variant of P01A11) VH: QVQLVQSGAEVKKPGSSVKVSCKASGYTFTNYAISWVRQAPGQGLEWMGGISPLFGTANYAQKFQGRVTITADESTSTAYMELSSLRSEDTAVYYCARDSGRSSDVGWYVGAMDVWGQGTLVTVSS VL: not shown |
| 1.8 | 2.5 | P1A11_T30S (antibody, V domains shown, Variant of P01A11) VH: QVQLVQSGAEVKKPGSSVKVSCKASGYTFSNYAISWVRQAPGQGLEWMGGISPLFGTANYAQKFQGRVTITADESTSTAYMELSSLRSEDTAVYYCARDGGRSSDVGWYVGAMDVWGQGTLVTVSS VL: not shown |
| 2.9 | 3.7 | P1A11_M113I (antibody, V domains shown, Variant of P01A11) VH: QVQLVQSGAEVKKPGSSVKVSCKASGYTFTNYAISWVRQAPGQGLEWMGGISPLFGTANYAQKFQGRVTITADESTSTAYMELSSLRSEDTAVYYCARDGGRSSDVGWYVGAIDVWGQGTLVTVSS VL: not shown |
| 38 | 45 | P01A11_L54A_R102A (antibody, V domains shown, Variant of P01A11) VH: QVQLVQSGAEVKKPGSSVKVSCKASGYTFTNYAISWVRQAPGQGLEWMGGISPAFGTANYAQKFQGRVTITADESTSTAYMELSSLRSEDTAVYYCARDGGASSDVGWYVGAMDVWGQGTLVTVSS VL: not shown |
| 97 | 138 | P01A11_T30S_N31S_L54I_G100A (antibody, V domains shown, Variant of P01A11) VH: QVQLVQSGAEVKKPGSSVKVSCKASGYTFSSYAISWVRQAPGQGLEWMGGISPIFGTANYAQKFQGRVTITADESTSTAYMELSSLRSEDTAVYYCARDAGRSSDVGWYVGAMDVWGQGTLVTVSS VL: not shown |
| 5.6 | 7.6 | P01A11_P53G (antibody, V domains shown, Variant of P01A11) VH: QVQLVQSGAEVKKPGSSVKVSCKASGYTFTNYAISWVRQAPGQGLEWMGGISGLFGTANYAQKFQGRVTITADESTSTAYMELSSLRSEDTAVYYCARDGGRSSDVGWYVGAMDVWGQGTLVTVSS VL: not shown |
| 75 | 105 | P01A11_T30S_N31S_L54I_G100A_M113I (antibody, V domains shown, Variant of P01A11) VH: QVQLVQSGAEVKKPGSSVKVSCKASGYTFSSYAISWVRQAPGQGLEWMGGISPIFGTANYAQKFQGRVTITADESTSTAYMELSSLRSEDTAVYYCARDAGRSSDVGWYVGAIDVWGQGTLVTVSS VL: not shown |
| 48 | 62 | P01A11_D105E (antibody, V domains shown, Variant of P01A11) VH: QVQLVQSGAEVKKPGSSVKVSCKASGYTFTNYAISWVRQAPGQGLEWMGGISPLFGTANYAQKFQGRVTITADESTSTAYMELSSLRSEDTAVYYCARDGGRSSEVGWYVGAMDVWGQGTLVTVSS VL: not shown |
| 19 | 16 | P01A11_L54A_S104E (antibody, V domains shown, Variant of P01A11) VH: QVQLVQSGAEVKKPGSSVKVSCKASGYTFTNYAISWVRQAPGQGLEWMGGISPAFGTANYAQKFQGRVTITADESTSTAYMELSSLRSEDTAVYYCARDGGRSEDVGWYVGAMDVWGQGTLVTVSS VL: not shown |
| 8.5 | 11 | P1A11_G100A (antibody, V domains shown, Variant of P01A11) VH: QVQLVQSGAEVKKPGSSVKVSCKASGYTFTNYAISWVRQAPGQGLEWMGGISPLFGTANYAQKFQGRVTITADESTSTAYMELSSLRSEDTAVYYCARDAGRSSDVGWYVGAMDVWGQGTLVTVSS VL: not shown |
| 25 | 32 | P1A11_W108Y (antibody, V domains shown, Variant of P01A11) VH: QVQLVQSGAEVKKPGSSVKVSCKASGYTFTNYAISWVRQAPGQGLEWMGGISPLFGTANYAQKFQGRVTITADESTSTAYMELSSLRSEDTAVYYCARDGGRSSDVGYYVGAMDVWGQGTLVTVSS VL: not shown |
| 0.69 | 1.3 | P1A11_L54I (antibody, V domains shown, Variant of P01A11) VH: QVQLVQSGAEVKKPGSSVKVSCKASGYTFTNYAISWVRQAPGQGLEWMGGISPIFGTANYAQKFQGRVTITADESTSTAYMELSSLRSEDTAVYYCARDGGRSSDVGWYVGAMDVWGQGTLVTVSS VL: not shown |
